Laboratory results: article PMC2699511

Biological target: GST-Vif wild type (HIV-1, UniProt P69723 1-192)
Assay: EMSA

Chain of GST-Vif wild type (P69723 whole entry): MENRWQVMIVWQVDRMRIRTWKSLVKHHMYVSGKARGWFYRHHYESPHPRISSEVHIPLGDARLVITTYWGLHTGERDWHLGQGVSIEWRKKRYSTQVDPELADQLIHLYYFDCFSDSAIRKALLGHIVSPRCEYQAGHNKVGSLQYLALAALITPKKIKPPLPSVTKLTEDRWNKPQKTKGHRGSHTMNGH

## AAAAAAAAAAAAAAAAAAAAAAAAAAAAAAAAAAAAAAAA (ssRNA) [poly(rA40)]
  binding result: binds
